According to article PMC12486813:

Molecular target: FcγRI (CD64) (UniProt P12314)
Experiment: BLI; binding-dissociation kinetics of FcγRI (CD64) with the antibody; who was immobilised not stated for this experiment; KD is the average of two independent experiments

UniProt P12314, sequence (P12314 16-374): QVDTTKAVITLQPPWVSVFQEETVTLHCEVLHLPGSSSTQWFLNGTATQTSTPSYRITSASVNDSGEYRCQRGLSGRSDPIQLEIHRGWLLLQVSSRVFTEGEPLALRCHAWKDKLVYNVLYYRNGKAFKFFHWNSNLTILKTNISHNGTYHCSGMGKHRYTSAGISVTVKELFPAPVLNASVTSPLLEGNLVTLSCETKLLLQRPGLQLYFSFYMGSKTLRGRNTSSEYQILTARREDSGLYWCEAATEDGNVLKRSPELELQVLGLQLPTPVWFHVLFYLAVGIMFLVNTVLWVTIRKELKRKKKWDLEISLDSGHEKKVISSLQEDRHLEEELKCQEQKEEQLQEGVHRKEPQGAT

Kd: 4.82 µM
Substance: 5C8 (LALA) (antibody)
